Consider one protein from paper PMC9510110, “Assignment of IVL-Methyl side chain of the ligand-free monomeric human MALT1 paracaspase-IgL3 domain in solution” (Biomolecular Nmr Assignments, 2022).

The data set concerns the molecule itself. Kind of data set: anion-exchange chromatography (Q-Sepharose HP); purification step after Ni2+ Sepharose; monomer and dimer forms separated on the column; followed by SEC on Superdex 200 in 20 mM HEPES 7.4, 50 mM NaCl, 1 mM DTT.

B1: human MALT1(Casp-IgL3)338–719 (domain or fragment, UniProt Q9UDY8 338-719, looked up)
chain: PLAKDKVALLIGNMNYREHPKLKAPLVDVYELTNLLRQLDFKVVSLLDLTEYEMRNAVDEFLLLLDKGVYGLLYYAGHGYENFGNSFMVPVDAPNPYRSENCLCVQNILKLMQEKETGLNVFLLDMCRKRNDYDDTIPILDALKVTANIVFGYATCQGAEAFEIQHSGLANGIFMKFLKDRLLEDKKITVLLDEVAEDMGKCHLTKGKQALEIRSSLSEKRALTDPIQGTEYSAESLVRNLQWAKAHELPESMCLKFDCGVQIQLGFAAEFSNVMIIYTSIVYKPPEIIMCDAYVTDFPLDLDIDPKDANKGTPEETGSYLVSKDLPKHCLYTRLSSLQKLKEHLVFTVCLSYQYSGLEDTVEDKQEVNVGKPLIAKLDMHR
notes: Expressed with isotope labels (2H, 15N, 13C; Ile/Val/Leu methyl labelling) in M9 medium; also called MALT1 paracaspase-IgL3 domain; source: E. coli T7 express, pET21b, purified (Ni2+ Sepharose, Q-Sepharose HP, SEC Superdex 200); not shown: His6, C-terminal, kept
Consider B1, for which the binding result is “binds”.
